Assay: soluble on expression in E. coli; label from the status in PepcDB or PDB records

Sequence	soluble on expression in E. coli
MGSDKIHHHHHHMKKLICISLYEDLSMTTYDLSKVDNAELIGIVENASEGTLFVFTCDRPNGSSVIMCPGGGFLKTNLENEGIDFAEWFTKLGITYIVFKYRMPHGNPDVPEQDTRLALKVVREKFPEFCDKLGVMGASIGGYLATFSATLLPDDEKPDFQILMYPVVSVDDRLTHFPCRERMFGHSYSPDKMEQYSPIEHITSGTPAAFIVAAADDAVVSPLNGIMYAARLQKADIPISLHIYPAGGHGFGYNDSFVYKQEWLQELGEWLAKL	not soluble
MEKAYDFEVEAPPEVVRDYLMNPENLMKYIPHFKDLKRVDDGWELYVSWLFTIKLKVKRVFTNTDIIYLVEKSEGLIKIKSSLRFTIFPSKGGITIVRLVFFYDGPFESIVKGQADAFYRKGKEVFKTEMTKEKRIQEEQNGVKGEVSIYEMKTIFSGKINKDELEKYLEIAMVKSVNSTVVVILSDERNIIEIKFKGGELVAQKGDLDSLSSPITILIKQLEHHHHHH	soluble
SLPTGGAPGRRWVGCRDMEHEVFVPVPAERLRDVLADPVRVARAVPGLQQDAGAEPVAGRLKVRIGSHSITYRGSLRLSARGDGTYAVEGDATESRGTGAVALALTLRADDAEGGATLTFTGTATADGRVAELPPDSVASAANRLLARFAENLGTAAQAPPAPEPEPSPQPEPRPASVFDTEVPPSSLADSGGGSDSDSDGDADEDTDAGADADADAQADEKAEAEGDADRGGRTDDEPAVSPPAEAAHARRTMIGRSAEEVDHAPPRGRYAPVPAPQPSAVGAPLRW	soluble
MEITNPILTGFNPDPSLCRQGEDYYIATSTFEWFPGVRIYHSRDLKNWSLVSTPLDRVSMLDMKGNPDSGGIWAPCLSYADGKFWLLYTDVKIVDSPWKNGRNFLVTAPSIEGPWSEPIPMGNGGFDPSLFHDDDGRKYYIYRPWGPRHHSNPHNTIVLQAFDPQTGTLSPERKTLFTGTPLCYTEGAHLYRHAGWYYLMAAEGGTSYEHAVVVLRSKNIDGPYELHPDVTMMTSWHLPENPLQKSGHGSLLQTHTGEWYMAYLTSRPLRLPGVPLLASGGRGYCPLGRETGIARIEWRDGWPYVEGGKHAQLTVKGPQVAEQPAAVPGNWRDDFDASSLDPELQTLRIPFDDTLGSLTARPGFLRLYGNDSLNSTFTQSTVARRWQHFAFRAETRMEFSPVHFQQSAGLTCYYNSKNWSYCFVDYEEGQGRTIKVIQLDHNVPSWPLHEQPIPVPEHAESVWLRVDVDTLVYRYSYSFDGETWHTVPVTYEAWKLSDDYIGGRGFFTGAFVGLHCEDISGDGCYADFDYFTYEPV	soluble
MEVKEMFSLGGGLGRSKVDESKVWDVIIIGAGPAGYTAAIYAARFGLDTIIITKDLGGNMAITDLIENYPGFPEGISGSELSKKMYDQVKKYGVEVIIDEVIRIDPAECAYYEGPCNFVVKTANGKEYKAKTIIIAVGAEPRKLNVPGEKEFTGRGVSYCATCDGPLFVGKEVIVVGGGNTALQEALYLHSIGVKVTLVHRRDKFRADKILQDRFKQAGIPAILNTVVTEIKGTNKVESVVLKNVKTGETVEKKVDGVFIFIGYEPKTDFVKHLGITDEYGYIPVDMYMRTKVPGIFAAGDITNVFKQIAVAVGQGAIAANSAKEFIESWNGKTIE	soluble
MPSISPASDADRALVIGSGLGGLAAAMRLGAKGWRVTVIDKLDVPGGRGSSITQEGHRFDLGPTIVTVPQSLRDLWKTCGRDFDADVELKPIDPFYEVRWPDGSHFTVRQSTEAMKAEVARLSPGDVAGYEKFLKDSEKRYWFGYEDLGRRSMHKLWDLIKVLPTFGMMRADRSVYQHAALRVKDERLRMALSFHPLFIGGDPFNVTSMYILVSQLEKEFGVHYAIGGVAAIAAAMAKVIEGQGGSFRMNTEVDEILVEKGTATGVRLASGEVLRAGLVVSNADAGHTYMRLLRNHPRRRWTDAHVKSRRWSMGLFVWYFGTKGTKGMWPDVGHHTIVNAPRYKGLVEDIFLKGKLAKDMSLYIHRPSITDPTVAPEGDDTFYALSPVPHLKQAQPVDWQAVAEPYRESVLEVLEQSMPGIGERIGPSLVFTPETFRDRYLSPWGAGFSIEPRILQSAWFRPHNISEEVANLFLVGAGTHPGAGVPGVIGSAEVMAKLAPDAPRARREAEPAERLAAELEHHHHHH	not soluble
TEKARDLFDKLMTQIQLDDTAKEHPLIQNGRIDKVIVHQQSRLWEFHLSFDELMPVMLYQTFMQQLELAFQQIAQVSVQITTNQTTFTEEQLTDYWQLALLNSQCNTPLVQKVLKTQTPQFEDRKIILPVDNEAVIPYLKQQYLPIIEELYFSYGF	not soluble
EDLDCTPGFQQKVFHINQPAEFIEDQSILNLTFSDCKGNDKLRYEVSSPYFKVNSDGGLVALRNITAVGKTLFVHARTPHAEDMAELVIVGGKDIQGSLQDIFKFARTSPVPRQKRSIVVSPILIPENQRQPFPRDVGKVVDSDRPERSKFRLTGKGVDQEPKGIFRINENTGSVSMTRTLDREVIAVYQLFVETTDVNGKTLEGPVPLEVIVIDQNDNRPIFREGPYIGHVMEGSPTGTTVMRMTAFDADDPATDNALLRYNIRRQTPDKPSPNMFYIDPEKGDIVTVVSPALLDRETLENPKYELIIEAQDMAGLDVGLTGTATATIMIDDKNDHSPKFTKKEFQATVEEGAVGVIVNLTVEDKDDPATGAWRAAYTIINGNPGQSFEIHTNPQTNEGMLSVVKPLDYEISAFHTLLIKVENEDPLVPDVSYGPSSTATVHITVLDVNEGPVFYPDPMMVTRQEDLSVGSVLLTVNATDPDSLQHQTIRYSVYKDPAGWLNINPINGTVDTTAVLDRESTFVDNSVYTALFLAIDSGNPPATGTGTLLITLEDVNDNAPFIYPTVAEVCDDAKNLSVVILGASDKDLHPNTDPFKFEIHKQAVPDKVWKISKINNTHALVSLLQNLNKANYNLPIMVTDSGKPPMTNITDLRVQVCSCRNSKVDCNAAGALRFSLPSVLLLSLFSLACL	soluble
SGRARRAEQDARAVELGLQLVGDNLQVLHAGNPAEPALRAYLGMGLSELHVLEQPDGADALAALTDYIRDSGAQMVLAGSQAETGEGSGMLPFLLAEGLGWPLVTGLAEVESLSNGTALVLQALPRGQRRRLKVRLPFLATVDNAAPAPRQSAYGPAQRGILDVDKIETVIDDLFTAQSLQPAKPRPKRLKVIKAKSGADRMKAATAKASGGSGQVLKGLSPEQSAAAILKLLIDEGVV	not soluble
GMYANKVKKIAAVHDLSGMGRVSLTVVIPILSSMGFQVCPLPTAVLSNHTQYPGFSFLDLTDEMPKIIAEWKKLEVQFDAIYTGYLGSPRQIQIVSDFIKDFRQPDSLIVADPVLGDNGRLYTNFDMEMVKEMRHLITKADVITPNLTELFYLLDEPYKADSTDEELKEYLRLLSDKGPQVVIITSVPVHDEPHKTSVYAYNRQGNRYWKVTCPYLPAHYPGTGDTFTSVITGSLMQGDSLPMALDRATQFILQGIRATFGYEYDNREGILLEKVLHNLDMPIQMASYELI	soluble
MSLDIQIQYSTDWKEEFLKRLEDGGPWSNWEMGKLAYEAANYQVIPEFHGLQAPKHLPQLQPFPHQMEVAQTVIEQMNGKAILADEVGLGKTIEAGLILKEYMIRGLAKKVLILVPASLVSQWAYELSSKFYIPAIPQKKAYVWEQYDVVVASIDTAKRQPHRDIVLNQHYDLVIIDEAHKLKNPKTKNYAFIKSLKRKYCLLLTATPVQNKLEEIFNLVSLLKPGHLGDLESFEKEYRANKRAPKNEDKLKELVNKVMVRNRREETGIEWTKRIVQTVPITFSEGERAFYHAITKLKQQPDVMTNSFSLLTLQREICSSREAAFMTLKNMITKLEQEGRTSPILESLIEQVGTIEGHAKAEKALELIQQINDKVIIFTEYRATQLYLQWYLKQHGISSVPFRGGFKRGKKDWMRQLFENRAQVLIATEAGGEGINLQFCHHIINYDLPWNPMRIEQRIGRIHRLGQTEDVRIYNFAVKDTIEEQILTLLYEKIQLFERVVGELDDILTKMNVGSIEEHIRDIFVHSDSEGEMKIKLDHLSAIMNDVANEKEEDHATGATASVSDALLEGHHHHHH	not soluble
SFELPALPYAKDALAPHISAETIEYHYGKHHQTYVTNLNNLIKGTAFEGKSLEEIIRSSEGGVFNNAAEVWNHTFYWNCLAPNAGGEPTGKVAEAIAASFGSFADFKAQFTDAAIKNFGSGWTWLVKNSDGKLAIVSTSNAGTPLTTDATPLLTVDVWEHAYYIDYRNARPGYLEHFWALVNWEFVAKNLAA	soluble
MDLTVPVEYSRAGNTTHSGNVHAIQDDEKFSYGTAGFRFKSEKLPFIVFRCAYVASLRARQLNSAIGVMITASHNPSCDNGVKLVDPSGDMLNEQWEIYATEVVNATDAELPAAVRALEKQISVGKTQLSRVVCGMDTRCSGPCLMNAARAGAALFNVQFDDIGVVSTPMLHYAVKAFNEPKFAEPTHDGYYSAIADSFKKLYEITEEPKDSRYQPKVIVDCANGVGAPRFRNLLERIPSSLLEVEFRNESEELNQGCGADFVKISQKLPANFSPTAAEPKCASFDGDADRLMYFRAKASENSESNDAELFDGDKIAVLIVTYIREQLKDYENSTPMERLRLGIVQTAYANGSSTRYIREKLGIEPIIVPTGVKHLHEAASEFDIGIYFEANGHGTVVFSEIFDRIIRRTPTESLPLRRLALFSRVINETVGDAFADLLAVEAVLRHYGWSMDDWAEKLYRDVPNVQIKVPVIDRSIFKTTNAEQTLVKPVGIQKMIDTDVAKYNNSRAFIRPSGTENIVRVYAEADTVENTLQLGKSLEQVVLNLCNSN	not soluble
MPEEDLVELKFRLYDGSDVGPFQYSPTATVSMLKERIVSEWPKDKKIVPKSASDIKLINAGKILENGKTVAQCKAPFDDLPKSVITMHVVVQLSPTKARPEKKIEKEEAPQRSFCSCTIM	soluble
MGQELNKIGIEVLRIVSIRDREEEIMEAVDNAMKRVNIVLVTGGLGPTKDDITKQTLCKYFHTELIFSEEVFENVKRVLAGKIPMNALNKSQAMVPKDCTVINNPVGSASVSWFEKDNKVLVSMPGVPQEMTAVMTESVLPKLREKFQTDVIMHRTFLVQHYPESILAEKLEPWETALPESIKLAYLPKLGIIRLRLTGRGQNKIEVESALNDEQAKLEAILGDDIFSEEDIPLEVIVGELLKKKNLTVSTAESCTGGSIAARLTSIAGSSEYFNGGIVAYSNEVKMNLLHVSPETLEVYGAVSEQTVIEMVKGAMKALKTDCAVATSGIAGPGGGTPEKPVGTVWIAAGYKNEIRTYRQETNRGRAMNIERAGNNALLILRDLLK	not soluble
MGSDKIHHHHHHMKTERILGALYGQALGDAMGMPSELWPRSRVKAHFGWIDRFLPGPKENNAACYFNRAEFTDDTSMALCLADALLEREGKIDPDLIGRNILDWALRFDAFNKNVLGPTSKIALNAIRDGKPVAELENNGVTNGAAMRVSPLGCLLPARDVDSFIDDVALASSPTHKSDLAVAGAVVIAWAISRAIDGESWSAIVDSLPSIARHAQQKRITTFSASLAARLEIALKIVRNADGTESASEQLYQVVGAGTSTIESVPCAIALVELAQTDPNRCAVLCANLGGDTDTIGAMATAICGALHGVNAIDPALKAELDAVNQLDFNRYATALAKYRQQREAV	not soluble
GSHMRKIQRYVRKDGKCNVHHGNVREKRAETLVFSTHAVISMRDGKLCLMFRVGDLRNSHIVEASIRAKLIKSKQTSEGEFIPLNQTDINVGYYTGDDRLFLVSPLIISHEINQQSPFWEISKAQLPKEELEIVVILEGMVEATGMTCQARSSYITSEILWGYRFTPVLTLEDGFYEVDYNSFHETYETSTPSLSAKELAELANRAEV	soluble
MRTSNYLLSTLKETPNDAEVVSHQLMLRAGMIRKLASGLYTWLPTGLRVLRKVENIVRQEIDNAGAVETLMPVVQPFELWEETGRSEKMGPELLRFTDRHVRPFVLSPTAEEVITSLVRNEVSSYKQLPLNLYQIQTKFRDERRPRFGVMRAREFCMMDAYSFDIDKAGLEKSYQAMHDAYCKAFDRMGLEYRPVLADSGAIGGSGSQEFHVLADSGEDLIAFSTESDYAANIEKAEALAPAVERAEPTQEMTLVDTPNAKTIAELVEQHGLPIEKTVKTLFVKASDEIDAPIIALIVRGDHELNEVKAENLPQVASPLEMASEEEIRELIGAGPGSLGPVGLELPFIVDRSVAVMSDFGAGANIDGKHYFGINWGRDVELGQVEDLRNVVEGDPSPCGKGTLMLK	not soluble

Source: the DeepSol protein solubility set
